According to publication PMC10206803, “Structural insights into DNA recognition by the BEN domain of the transcription factor BANP”:

T1: BANP BEN domain (human, UniProt Q8N9N5 208-347)
T1 sequence: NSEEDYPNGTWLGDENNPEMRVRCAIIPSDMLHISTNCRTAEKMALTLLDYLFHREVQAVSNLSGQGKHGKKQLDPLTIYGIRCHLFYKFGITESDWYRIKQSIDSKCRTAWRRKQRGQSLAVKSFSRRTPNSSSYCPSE

T2: BEND6 BEN domain (human, UniProt Q5SZJ8 170-271)
T2 sequence: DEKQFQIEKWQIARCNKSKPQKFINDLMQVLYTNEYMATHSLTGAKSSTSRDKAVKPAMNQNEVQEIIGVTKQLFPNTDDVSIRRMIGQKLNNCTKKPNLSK

B1: TCTCG to TCGCG (dsDNA)
DNA 1: GCAAATCGCGTA
DNA 2: TACGCGATTTGC
B2: CTCacgcgAGAG (dsDNA)
DNA 1: CTCACGCGAGAG
DNA 2: CTCTCGCGTGAG
B3: AAA and TCTCG both mutated (dsDNA)
DNA 1: GCCAGCAACATA
DNA 2: TATGTTGCTGGC
B4: AAA to ggg (dsDNA)
DNA 1: GCGGGTCTCGTA
DNA 2: TACGAGACCCGC
B5: TCTCG to caaca (dsDNA)
DNA 1: GCAAACAACATA
DNA 2: TATGTTGTTTGC
B6: CTCgagcgAGAG (dsDNA)
DNA 1: CTCGAGCGAGAG
DNA 2: CTCTCGCTCGAG
B7: CTCtggcgAGAG (dsDNA)
DNA 1: CTCTGGCGAGAG
DNA 2: CTCTCGCCAGAG
B8: PBM motif DNA AAATCTCG (dsDNA)
DNA 1: GCAAATCTCGTA
DNA 2: TACGAGATTTGC
B9: AAA to cag (dsDNA)
DNA 1: GCCAGTCTCGTA
DNA 2: TACGAGACTGGC
B10: CGmCG DNA (dsDNA)
DNA 1: CTCTCGCGAGAG
DNA 2: CTCTCGCGAGAG
modifications: 5-methylcytosine at C7 of both strands
B11: CGCG DNA (dsDNA)
DNA 1: CTCTCGCGAGAG
DNA 2: CTCTCGCGAGAG
B12: FAM methylated CGCG DNA (dsDNA)
DNA 1: CTCTCGCGAGAG
DNA 2: CTCTCGCGAGAG
modifications: 5-methylcytosine, position not given
B13: FAM-CGCG DNA (dsDNA)
DNA 1: CTCTCGCGAGAG
DNA 2: CTCTCGCGAGAG

target: T1, BANP BEN domain; assay: ITC; ITC: 150 mM NaCl, 20 mM Tris-HCl pH 7.5, with or without DTT, 25 C, 50-90 uM protein in cell, 1 mM DNA in syringe; FP: 20 mM Tris-HCl pH 7.5, 150 mM NaCl, 1 mM; details: protein: recombinant; tags: His6-SUMO removed by TEV; blunt

For B1, which Kd is on record?
Its Kd is 1.5 ± 0.2 µM.

How did the Kd turn out when B2 was run?
The Kd was 14.3 ± 2.6 µM.

For B3, which Kd is on record?
The Kd was 15.1 ± 1.9 µM.

B4 was tested. Which Kd did it give?
Its Kd is 4.3 ± 0.3 µM.

For B5, which Kd is on record?
The Kd was 5.4 ± 0.4 µM.

With B6 as the binder, how does the Kd read?
Its Kd is 14.1 ± 3 µM.

B7 was tested. Which Kd did it give?
The Kd was 14.8 ± 2.3 µM.

How did the Kd turn out when B8 was run?
The Kd was 1 ± 0.1 µM.

How did the Kd turn out when B9 was run?
The Kd was 2.9 ± 0.3 µM.

same assay, conditions: protein: recombinant; tags: His6-SUMO removed by TEV; blunt, self-complementary

For B10, which Kd is on record?
The Kd was 7.6 ± 0.3 µM.

B11 was tested. Which Kd did it give?
The Kd was 8.4 ± 0.7 µM.

target: T2, BEND6 BEN domain; assay: fluorescence polarization; ITC: 150 mM NaCl, 20 mM Tris-HCl pH 7.5, with or without DTT, 25 C, 50-90 uM protein in cell, 1 mM DNA in syringe; FP: 20 mM Tris-HCl pH 7.5, 150 mM NaCl, 1 mM; details: protein: recombinant; tags: His6 (pET28-MHL) removed by TEV; label: 5' FAM

With B12 as the binder, how does the Kd read?
Its Kd is about 39 µM.

same assay, conditions: protein: recombinant; tags: His6 (pET28-MHL) removed by TEV; label: 5' FAM; blunt, self-complementary

Which Kd does the source give for B13 here?
The Kd was about 33 µM.
